From the nanobody polyreactivity screen of Harvey et al. (2022) come the findings set out here.

The nature of this data set: yeast display, Sf9 membrane polyspecificity reagent, FACS + sequencing; frameworks hold sequencing errors. The gist of the method:
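After 36–48 hours of galactose induction, yeast (Saccharomyces cerevisiae BJ5465) displaying a synthetic nanobody library were stained at 4 °C for 1 hour with 10% biotinylated, detergent-solubilized Sf9 membrane reagent. Streptavidin microbeads enriched the stained cells before FACS sorting into low and high (top ~1%) gates on anti-HA and streptavidin fluorescence. Each clone's polyreactivity label reflects its gate of origin.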
“QVQLVESGGGLVQAGGSLRLSCAASGLTFDYYTMGWYRQAPGNERELVAAINWSGGRTYYADSVKGRFTISRDNAKNTVYLQMNSLKPEDTAVYYCAAETYRRHDYDYWGQGTQVTVSS”: the “polyreactivity (PSR sort gate)” value is recorded as “high polyreactivity”.

In the case of “QVQLVESGGGLVQAGGSLRLSCAASGLTFEGNAMGWYRQAPGKERELVAAISRRGGSTYYADSVKGRFTISRHNAKNTVYLQMNSLKPEDSAVYYCAADRQPYTDKYDYWGQGTQVTVSS”, the “polyreactivity (PSR sort gate)” value is recorded as “high polyreactivity”.

As to “QVQLVESGGGLVQAGGSLRLSCAASGLTFEGYAMGWYRQAPGKERELVAAISSSSGRTYYADSVKGRFTISRDNAKNTVYLQMNSLKPEDTAVYYCAARPGSGRSYTSDYWGQGTQVTVSS”, the “polyreactivity (PSR sort gate)” value is recorded as “high polyreactivity”.

Consider “QVQLVESGGGLVQAGGSLRLSCAASGLTFEHNAMGWYRQAPGKEREFVAVISWRGTSTYYADSVKGRFTISRDNAKNTVYLQMNSLKPEDTPVYYCATRYYGDDGYRYDHWGQGTQVTVSS”, for which the “polyreactivity (PSR sort gate)” value is recorded as “high polyreactivity”.

In the case of “QVQLVESGGGLVQAGGSLRLSCAASGLTFERYAMGWYRQAPGKERELVAAISIRGGSTYYADSVKGRFTISRDNAKNTVYLQMNSLKPEDTAVYYCSADGRGREYDYWGQGTQVTVSS”, the “polyreactivity (PSR sort gate)” value is given as “low polyreactivity”.

In the case of “QVQLVESGGGLVQAGGSLRLSCAASGLTFEYNAMGWYRQAPGKERELVASISSGGGTNYADSVKGRFTISRDNAKNTVYLQMNSLKPEDTAVYYCATDNYDWSCWAFRGYWYDYWGQGTQVTVSS”, the “polyreactivity (PSR sort gate)” value is on record as “low polyreactivity”.

Regarding “QVQLVESGGGLVQAGGSLRLSCAASGLTFFGYTMGWYREAPGKEREFVADITWSGGSTYYADSVKGRFTISRDNAKNTVYLQMNSLKPEDTAVYYCSVAPPNWDPFVDDTYLMDYWGQGTQVTVSS”, the “polyreactivity (PSR sort gate)” value is on record as “low polyreactivity”.

As to “QVQLVESGGGLVQAGGSLRLSCAASGLTFGDYAMGWYRQAPGKERELVAVISRSGGSTYYADSVKGRFTISRDNAKNTVYLQMNSLKTEDTAVYYCDKDAGLQKYHHDYWGQGTQVTVSS”, the “polyreactivity (PSR sort gate)” value was “low polyreactivity”.

In the case of “QVQLVESGGGLVQAGGSLRLSCAASGLTFGFNAMGWYRQAPWKERELDAAISSGGSTYYADSVKGRFTISRDNAKNTVYLQMNSLKPEDTAVYYCAKSGGSSQYWYGYWGQGTQVTVSS”, the “polyreactivity (PSR sort gate)” value was “high polyreactivity”.

Consider “QVQLVESGGGLVQAGGSLRLSCAASGLTFGLYAMGWYRQAPGKERELVAVITAGGRTYYADSVKGRFTISRDNAKNTVYLQMNSLKPEDTAVYYCATVNYGSGRGYRRVYTAYYYWGQGTQVTVSS”, for which the “polyreactivity (PSR sort gate)” value is “low polyreactivity”.

Take “QVQLVESGGGLVQAGGSLRLSCAASGLTFGRNAMGWYRQAPWKERELVAAISRSGGRTSYADSVKGRFTISRDNAKNTVYLQMNSLKPEDTAVYYCAARSDVYTHDYWGQGTQVTVSS”: the “polyreactivity (PSR sort gate)” value is recorded as “high polyreactivity”.

On to “QVQLVESGGGLVQAGGSLRLSCAASGLTFGSYAMGWYRQAPGKERELVAAISRSGGSTYYADSVKGRFTISRDNAKNTVYLQMNSLKPEDTAVYYCNAVNPYYAPTDRRVGYDYWGQGTQVTVSS”, for which the “polyreactivity (PSR sort gate)” value is on record as “high polyreactivity”.

Regarding “QVQLVESGGGLVQAGGSLRLSCAASGLTFGSYTMGWYRQAPGRERDLVAAITSDGSTNYADSVKGRFTISRDNAKNTVYLQMNSLKPEDTAVYYCNKGETLYGSVPYDYWGQGTQVTVSS”, the “polyreactivity (PSR sort gate)” value is listed as “high polyreactivity”.

Turning to “QVQLVESGGGLVQAGGSLRLSCAASGLTFGVNAMGWYRQAPGKERELVAAISGSGGRTNYADSVKGRFTISRDNAKNTVYLQMNSLKPEDTAVYYCNARFPDWALSEISHSTTYGYWGQGTQVTVSS”, the “polyreactivity (PSR sort gate)” value is given as “low polyreactivity”.

“QVQLVESGGGLVQAGGSLRLSCAASGLTFGWNAMGWYRQAPGKERELVAGITSDTITHYADSVKGRFTISRDNAKNTVYLQMNSLKPEDTAVYYCAVPRGVASLQKVEFGYWGQGTQVTVSS”: the “polyreactivity (PSR sort gate)” value is given as “low polyreactivity”.

In the case of “QVQLVESGGGLVQAGGSLRLSCAASGLTFGYYAMGWYRQAPGKEREFVASITWSGGTTYYADSVKGRFTISRDNAKNTVYLQMNSLKPEDTAVYYCAAQRSYAYEYWGQGTQVTVSS”, the “polyreactivity (PSR sort gate)” value is on record as “high polyreactivity”.

Turning to “QVQLVESGGGLVQAGGSLRLSCAASGLTFGYYSMGWYREAPGKERELVAAITYSGGSTYYADSVKGRFTISRDNAKNTVYLQMNSLKPEDTAVYYCAAEGPVYTTYEYWGQGTQVTVSS”, the “polyreactivity (PSR sort gate)” value is reported as “low polyreactivity”.

As for “QVQLVESGGGLVQAGGSLRLSCAASGLTFGYYVMGWYRQAPGKERELVAAISFRGVSTYYADSVKGRFTISRDNAKKTVDLQMNSLKPEDTAVNYCARRYTSKGGYDYWGQGTQVTVSS”, the “polyreactivity (PSR sort gate)” value is given as “high polyreactivity”.

“QVQLVESGGGLVQAGGSLRLSCAASGLTFHRYAMGWYRQAPGKERELVAAINYSGGRTYYADSVKGRFTISRDNAKNTLYLQMNSLKPEDTAVYYCAAPRASGYYWGQGTQVTVSS”: the “polyreactivity (PSR sort gate)” value is “high polyreactivity”.

“QVQLVESGGGLVQAGGSLRLSCAASGLTFHYYAMGWYRQAPGKERELVAAITATYYADSVKGRFTISRDNAKNTVYLQMNSLKPEDTAVYYCNAFLYPKQPLSPPDPTFEGGYWGQGTQVTVSS”: the “polyreactivity (PSR sort gate)” value is “low polyreactivity”.

Turning to “QVQLVESGGGLVQAGGSLRLSCAASGLTFIEYAKGWYRQAPGKERELVAAISSGGRTYYADSVKGRFTISRDNAKNTVYLQMNSLKPEDTAVYYCNARGYRRWYNYWGQGTQVTVSS”, the “polyreactivity (PSR sort gate)” value was “high polyreactivity”.

As for “QVQLVESGGGLVQAGGSLRLSCAASGLTFIFYAMGWYRQAPGKERELVATIRRSGSTYYADSVKGRFTISRDNAKNTVYLQMNSLKPEDTAVYYCNARYPYSYGDYWGQGTQVTVSS”, the “polyreactivity (PSR sort gate)” value was “high polyreactivity”.

For the sequence “QVQLVESGGGLVQAGGSLRLSCAASGLTFIYYAMGWYRQAPGKERELVAAISVSGGSTSYADSVKGRFTISRDNAKNTVYLQMNSLKPEDTAVYYCAADWFVHKPRYQYSFDYWGQGTQVTVSS”, the “polyreactivity (PSR sort gate)” value is “low polyreactivity”.

“QVQLVESGGGLVQAGGSLRLSCAASGLTFKDNAMGWYRQAPGKERELVAAISKGGGSTFYADSVKGRFTISRDYAKNTVYFQMNSLKPEDTAVYYCNADVGYRGGEEVYWGQGTQVTVSS”: the “polyreactivity (PSR sort gate)” value is “low polyreactivity”.

“QVQLVESGGGLVQAGGSLRLSCAASGLTFKLYVMGWYRQAPRKERELVAAISGGGSTYYADSVKGRFTISRDNAKNTVYLQMYSLKPEDTAVYYCAAVRYFEYEYWGQGTQVTVSS”: the “polyreactivity (PSR sort gate)” value is recorded as “low polyreactivity”.

In the case of “QVQLVESGGGLVQAGGSLRLSCAASGLTFKSYAMGWYRQAPGKETELVAAISWRGGRTYYADSVKGRFTISRDNAKNTVYLQMNSLKPEDTAVYYCNARSQQWWLSRYNYWGQGTQVTVSS”, the “polyreactivity (PSR sort gate)” value is reported as “high polyreactivity”.

On to “QVQLVESGGGLVQAGGSLRLSCAASGLTFKTYAMGWYRQAPGKERELVAAISRSGGSTSYADSVKGRFTISRDNAKNTVYLQLNSLIPEDTEVYYCAAKTYEPRKYDYWGQGTQVTVSS”, for which the “polyreactivity (PSR sort gate)” value was “high polyreactivity”.

For “QVQLVESGGGLVQAGGSLRLSCAASGLTFKYNAMGWYRQAPGKERELVAGISWSTSSTYYADSVKGRFTISRDNAKNTVYLQMNSLKPEDTAVYYCAVYTITGRVLRQGPLYRHYYWGQGTQVTVSS”, the “polyreactivity (PSR sort gate)” value is recorded as “high polyreactivity”.

For the sequence “QVQLVESGGGLVQAGGSLRLSCAASGLTFKYYAMGWYRQAPGKERELVAAITATGGRTYYADSVKGRFTISRDIAKNTVYLQLNSLNPEDTAVYYCNARQYQTYYFYKHDYWGQGTQVSVSS”, the “polyreactivity (PSR sort gate)” value is recorded as “high polyreactivity”.

As to “QVQLVESGGGLVQAGGSLRLSCAASGLTFLGNAMGWYRQAPGKERELVASITFSGDSTYYADSVKGRFTISRDNAKNSVYLQMNSVKPEDTAVYYCAADGSRLYYWPFEYDYWGQGTQVTVSS”, the “polyreactivity (PSR sort gate)” value is “low polyreactivity”.

For “QVQLVESGGGLVQAGGSLRLSCAASGLTFLIYAMGWYIQAPRKERELVASITGRGGSTYYADSVKGRFTISRDNAKNTVYLQMNCLKPEDTAVYYCAASLRYYGLEMDYWGQGTQVTVSS”, the “polyreactivity (PSR sort gate)” value is “high polyreactivity”.

As to “QVQLVESGGGLVQAGGSLRLSCAASGLTFNGYTMGWYRQAPGKERELVAGITHSGSTTYTDSVKGRFTISRDNAKNTVYLQMNSLKPEDTAVYYCNARLGKVRVKDDYWGQGTQVTVSS”, the “polyreactivity (PSR sort gate)” value is given as “low polyreactivity”.

With “QVQLVESGGGLVQAGGSLRLSCAASGLTFNLYAMGWYRQAPGKEWELVAAITRNGGSTYYADSVKGPFTISRDNAKNSVYLELNSLKPEDTAVYYCATGWLGTPYGYRRFGYWGQGTQVTVSS”, the “polyreactivity (PSR sort gate)” value is “high polyreactivity”.

“QVQLVESGGGLVQAGGSLRLSCAASGLTFNRNAMGWYRQAPGKERELVARISRGGSTNYADSVKGRFTISRDNAKNTVYLQMNSLKPEDTAVYYCAKRGNPRSVVHYNSWGQGTQVTVSS”: the “polyreactivity (PSR sort gate)” value is “high polyreactivity”.

On to “QVQLVESGGGLVQAGGSLRLSCAASGLTFNVYAMGWYRQAPGKERELVAAITRSTGRTYYADSVKGRFTISRDNAKNTVYLQMNSLIPEDTAVYYCNRVSRQYYYQRGFEYDYWGQGTQVTVSS”, for which the “polyreactivity (PSR sort gate)” value was “high polyreactivity”.

Take “QVQLVESGGGLVQAGGSLRLSCAASGLTFNWNAMGWYRQAPGKERELVAAIRSSGGSTYADSVKGRFTISRDNAKNTVYLQMNSLKPEDTAVYYCAARSRVPPAGPRYDYWGQGTQVTVSS”: the “polyreactivity (PSR sort gate)” value was “high polyreactivity”.

“QVQLVESGGGLVQAGGSLRLSCAASGLTFNYYDMGWYRQAPGKERELVAAISRSGTNTSYADSVKGRFTISRDNAKNTVYLQMNSLKPEDTAVYYCNAAGVYLAAGPFTANFNYNYWGQGTQVTVSS”: the “polyreactivity (PSR sort gate)” value is on record as “low polyreactivity”.

With “QVQLVESGGGLVQAGGSLRLSCAASGLTFPGYVMGWYRQAPGKERELVAAITNGGRTYYADSVKGRFTISRDNAMNTVYLQMNSLKPEDTAVYYCNTARGSKDPPHYYWGQGTQVTVSS”, the “polyreactivity (PSR sort gate)” value is recorded as “high polyreactivity”.

Regarding “QVQLVESGGGLVQAGGSLRLSCAASGLTFPKYAMGWYRQAPGKERELVAAITQRGGSTYYADSVKGRFTISRDNAKNTVYLQMNSLNPEDTAVYYSNARRRDYNNRREFDYWGQGTQVTVSS”, the “polyreactivity (PSR sort gate)” value was “high polyreactivity”.

“QVQLVESGGGLVQAGGSLRLSCAASGLTFPPYAMGWSRQAPGNERELVAAISRIRGRTYYADSVKGRFTISRDTAKNTVYLQMNSLKPEDTAVYYCAADGIKGGDEYDYWGQGTQVTVSS”: the “polyreactivity (PSR sort gate)” value was “high polyreactivity”.
